Assay results published in patent US10273305B2, “Bispecific CXCR4-CD4 polypeptides with potent anti-HIV activity” (Ablynx N.V., priority 2015, dated 2019).

What was measured:
[1] = tested on: HIV-1 CI#17 clinical isolate (clade B); assay: HIV-1 CI#17 infection of PBMCs, p24; format: cell-based; details: PBMC, average 2 donors
CXCR4 [2] = molecular target: T1, CXCR4 (Homo sapiens, UniProt P61073); assay: [125I]-CXCL12 radio-ligand displacement on membranes of HEK293 cells transfected with CXCR4; format: binding; details: 75 pM [125I]-CXCL12
T1 sequence (P61073 whole entry): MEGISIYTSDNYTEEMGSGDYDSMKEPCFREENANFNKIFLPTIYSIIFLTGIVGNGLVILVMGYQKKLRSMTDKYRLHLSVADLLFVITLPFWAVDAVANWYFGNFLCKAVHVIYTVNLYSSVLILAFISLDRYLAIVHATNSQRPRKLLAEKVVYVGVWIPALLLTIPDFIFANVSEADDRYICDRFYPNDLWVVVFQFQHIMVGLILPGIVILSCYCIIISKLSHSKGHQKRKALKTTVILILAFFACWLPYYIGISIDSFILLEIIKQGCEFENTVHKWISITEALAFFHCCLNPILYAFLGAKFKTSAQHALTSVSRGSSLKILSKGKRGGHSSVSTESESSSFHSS
Description: To this end, CXCR4 Nanobodies were analysed for their binding to HEK293T-CXCR4 cells, and their ability to compete with the ligand CXCL12 (or SDF-1a) for receptor binding in a radio-ligand displacement assay. The sequences of the respective CXCR4 Nanobodies are depicted in Table 3.1A.
Non-specific binding was determined in presence of 100 nM cold SDF-1. The assay was performed three times, and average percentages of SDF-1 inhibition and Ki values were calculated (Table 3.1B).

CXCR4 [3] = molecular target: T1, CXCR4; assay: Displacement of biotinylated SDF-1 on Caki cells expressing hCXCR4, flow cytometry; format: binding; details: 30 nM biotinylated SDF-1
Description: In addition, CXCR4 Nanobodies were analysed for ligand competition by displacement of biotinylated SDF-1 on transient transfected Caki cells expressing hCXCR4 in flow cytometry. To this end, serial dilutions of Nanobodies were pre-incubated with 30 nM of biotinylated SDF-1 (R&D Systems Fluorikine kit) and incubated to Caki-CXCR4 cells for 1 hour at 4C, after which ligand binding was visualised using extravidin-PE. The biotin-SDF-1 competitor concentration used in this assay was below the EC50 value obtained in dose-titration, where IC50 values should reflect the Ki. Ligand displacement IC50 values were calculated, and compared to the NL4.3 (X4) neutralization potencies.

CXCR4 [4] = molecular target: T1, CXCR4; assay: CXCL12-AF647 binding inhibition on SupT1 cells by flow cytometry; details: T-cells (SUPT-1); read-out: IC50 of blocking CXCL12AF647 binding to CXCR4
[5] = tested on: CXCR4-using (X4) HIV-1 clone NL4.3; assay: microbe, parasite or virus in culture; format: cell-based; details: Example 10
[6] = molecular target: interaction of CD4 with the viral gp120 protein (Homo sapiens, UniProt P01730); assay: ELISA-based competition of CD4-gp120 interaction; format: binding; details: 500 nM Nanobody; gp120 HIV-1 IIIB
Description: Besides its role on T-cells, CD4 also serves as primary receptor for HIV entry. Therefore purified CD4 Nanobodies were analysed for the capacity to block the interaction of CD4 with the viral gp120 protein. Monovalent His-tagged Nanobodies were purified from periplasmic extracts by affinity and desalting chromatography and used in an ELISA-based competition setup. In short, 1 μg/ml of gp120 HIV-1 IIIB (Immunodiagnostic) was captured by 20 μg/ml of sheep anti-gp120 antibody D7324 (Aalto Bio Reagents) previously coated in 96 well Maxisorp microtiter plates (Nunc) and blocked with 1% casein in PBS. In parallel, 0.5 μg/ml of biotinylated CD4 was incubated with 500 nM of the different purified Nanobodies in 100 μl 0.1% Casein/PBS. After 1 hour, the biotinylated CD4-Nanobody pre-mixes were incubated 1 hour with the captured gp120. Bound biotinylated CD4 was detected using HRP-conjugated Extravidin (Sigma E2886). A blocking mouse anti-CD4 IgG2a antibody (Diaclone, clone B-A1 cat#854.030.000) was used as positive control. Blocking activity was determined as loss of O.D. signal, as compared to wells where no Nanobody was added.

B1: 283F1: anti-CXCR4 Nanobody, SEQ ID NO: 12 (protein)
VHH: EVQLVESGGGLVQAGGSLRLSCVASVNIFGSIAMAWYRQAPGKQRNLVASISSGGRINYADSRKGRFTISRDNTKNTVHLQMNSLEPEDTAVYYCAAGRIGQRTLTFTPDYWGQGTQVTVSS
modifications: Nanobody Sequence
IC50 [1]: 2 nM
IC90 [1]: 9.1 nM
[125I] SDF-1 displacement on CXCR4-Hek pKi +/SEM (n = 3) (CXCR4 [2]): 7.93 +/− 0.41

B2: 15G11: anti-CXCR4 Nanobody, SEQ ID NO: 14 (protein)
VHH: EVQLVESGGGLVQAGDSLRVSCAASGRTSSYAMAWFRQAPGKEREFVGTISRTNSRTKYADFVEGRFTISRDNAKSTLSLQMTSLKPEDTAVYYCAAKWTGNSYHDYTWSKVDEYNVWGQGTQVTVSS
modifications: Nanobody Sequence
ligand displacement to CXCR4 (CXCR4 [3]): hardly any ligand displacement

B3: 281F12-35GS-3F11: bispecific CXCR4-CD4 polypeptide, SEQ ID NO: 106 (protein)
chain: EVQLVESGGGLVQAGDSLRLSCAASGRAFSRYAMGWFRQAPGKEREFVAAIGWGPSKTNYADSVKGRFTISRDNAKNTVYLQMNTLKPEDTAVYSCAAKFVNTDSTWSRSEMYTYWGQGTQVTVSSGGGGSGGGGSGGGGSGGGGSGGGGSGGGGSGGGGSEVQLVESGGGSVQPGGSLTLSCGTSGRTFNVMGWFRQAPGKEREFVAAVRWSSTGIYYTQYADSVKSRFTISRDNAKNTVYLEMNSLKPEDTAVYYCAADTYNSNPARWDGYDFRGQGTQVTVSS
modifications: chains of the parent or of the whole protein
IC50 (CXCR4 [4]): 0.97 nM

B4: 283B6: anti-CXCR4 Nanobody, SEQ ID NO: 10 (protein)
VHH: EVQLVASGGGLVQAGGSLRLSCAVSGTTFSVATLGWYRQAPGQQRALVADISSGGSTNYADSVRGRFTISRDNAKNLAYLQMNSLKPEDTAVYYCNARTSGWRTRSNYWGQGTQVTVSS
modifications: Nanobody Sequence
IC50 [1]: 2.8 nM
IC90 [1]: 9.9 nM
[125I] SDF-1 displacement on CXCR4-Hek pKi +/SEM (n = 3) (CXCR4 [2]): 8.78 +/− 0.24

B5: 283E2: anti-CXCR4 Nanobody, SEQ ID NO: 11 (protein)
VHH: EVQLVESGGGLVQAGGSLRLSCAVSGTTFSVATLGWYRQAPGQQRALVADISSGGSTNYADSVRGRFTISRDNAKNLAYLQMNSLKPEDTAVYYCNARTSGWRTRSNYWGQGTQVTVSS
modifications: Nanobody Sequence
IC50 [1]: 3.7 nM
[125I] SDF-1 displacement on CXCR4-Hek pKi +/SEM (n = 3) (CXCR4 [2]): 8.29 +/− 0.11

B6: 281E10: anti-CXCR4 Nanobody, SEQ ID NO: 6 (protein)
VHH: EVQLVESGGGLVQAGGSLRLSCKASGGTFNNYAMGWFRRAPGKEREFVAAITRSGVRSGVSAIYGDSVKDRFTISRDNVKNTLYLQMNTLKPEDTAVYTCAASAIGSGALRRFEYDYSGQGTQVTVSS
modifications: Nanobody Sequence
IC50 [1]: 1.3 nM
IC90 [1]: 8.1 nM
[125I] SDF-1 displacement on CXCR4-Hek pKi +/SEM (n = 3) (CXCR4 [2]): 9.21 +/− 0.12

B7: 281D4: anti-CXCR4 Nanobody, SEQ ID NO: 7 (protein)
VHH: EVQLVESGGGLVQAGGSLRLSCAASGGTFNNYAMGWFRRAPGKEREFVAAISRSGVRTGVSALYGDSVKDRFTISRDNAKNTLYLQMNKMKPEDTAVYTCAASAIGSGALRRFEYDSSGQGTQVTVSS
modifications: Nanobody Sequence
IC50 [1]: 15 nM
IC90 [1]: 33 nM
[125I] SDF-1 displacement on CXCR4-Hek pKi +/SEM (n = 3) (CXCR4 [2]): 8.27 +/− 0.05

B8: 281A6: anti-CXCR4 Nanobody, SEQ ID NO: 8 (protein)
VHH: EVQLVESGGGLVQTGGSLRLSCAASGGTFNNYAMGWFRRAPGKEREFVAAISRSGVRTGVSALYGDSVKDRFTISRDNAKNTLYLQMNKMKPEDTAVYTCAASAIGSGALRRFEYDSSGQGTQVTVSS
modifications: Nanobody Sequence
IC50 [1]: 20 nM
IC90 [1]: 61 nM
[125I] SDF-1 displacement on CXCR4-Hek pKi +/SEM (n = 3) (CXCR4 [2]): 8.63 +/− 0.02

B9: 281A5: anti-CXCR4 Nanobody, SEQ ID NO: 5 (protein)
VHH: EVQLVESGGGLVQAGGSLRLSCAASGRTFNNYAMGWFRRAPGKEREFVAAITRSGVRSGVSAIYGDSVKDRFTISRDNAKNTLYLQMNSLKPEDTAVYTCAASAIGSGALRRFEYDYSGQGTQVTVSS
modifications: Nanobody Sequence
IC50 [1]: 12 nM
IC90 [1]: > 57 nM
[125I] SDF-1 displacement on CXCR4-Hek pKi +/SEM (n = 3) (CXCR4 [2]): 8.12 +/− 0.08

B10: 15A1: anti-CXCR4 Nanobody, SEQ ID NO: 15 (protein)
VHH: EVQLVESGGGLVQAGGSLRLSCAASGRTFSRAAMGWFRQAPGKEREFVGCALSSAGSALTADSVKGRFTISRDNAKNMVYLQMNNLKPEDTAVYSCVAGGYCTRAGVYPYWGQGTQVTVSS
modifications: Nanobody Sequence
IC50 HIV1 neutralisation NL4.3 in MT-4 cells, panel of CXCR4 Nanobodies [5]: sub-nanoMolar range

B11: 01B6: anti-CD4 Nanobody, SEQ ID NO: 17 (protein)
VHH: EVQLVESGGGLVQSGGSLRLSCAASGFTFSGYWMYWVRQAPGKGLEWVSAISPGGGSTYYPDSVKGRFTISRDNAKNTLYLQMNSLKPEDTALYYCASSLTATHTYEYDYWGQGTQVTVSS
modifications: Nanobody Sequence
blocking of in vitro interaction of CD4 with gp120 [6]: block
